# From patent US20220403001A1, “PDE5 DERIVED REGULATORY CONSTRUCTS AND METHODS OF USE IN IMMUNOTHERAPY” (Obsidian Therapeutics, Inc., priority 2018, published 2022)
# Columns and labels:
# [1] = biological target: T1, hPDE5 mutants (Homo sapiens, UniProt O76074); experiment: GFP FACS analysis of hPDE5 mutant library clones in NIH3T3 cell pools; settings: for Stabilization ratio: GFP intensity 10 μM vardenafil vs DMSO; for Stabilization ratio / Destabilizing mutation co-efficient / MFI 10 μM VDF / MFI DMSO / GFP FACS analysis (MFI): experiment 1; for Destabilizing mutation co-efficient: GFP intensity mutant vs PDE5 wildtype construct in absence of ligand; for MFI 10 μM VDF / MFI DMSO: GFP, NIH3T3 cell pools; for MFI 10 μM VDF: 10 μM vardenafil 24 hr; for MFI DMSO: no ligand (DMSO)
# Method: (§11) These constructs were packaged into lentivirus, transduced into NIH3T3 cells and select stable cell pools were derived as described below. […] Lentiviral stocks were used for transduction of NIH3T3 cells and subsequent cell pool selection. The day before transduction, NIH3T3 cells (1.8×10^6) were seeded in a T-25 flask and allowed to reach 60-70% confluency (˜1 day). The growth medium in the T-25 flask was then replaced with 1 mL virus (quickly thawed in a 37° C. water bath) and 5 μg/mL polybrene. […] Transduction medium was removed the following day and replaced with 5 mL fresh medium. At 48 hr after transduction, the medium was replaced with media containing 1 μg/mL puromycin. This puromycin medium was replaced every 3-4 days until cell pools were established (˜2 weeks).
# (§12) The mean fluorescence intensity (MFI) of GFP at 100 μM concentration treatment was set as 100% hPDE5 stabilization effect (HPE), while DMSO treatment was set as 0% effect (ZPE) of hPDE5 stabilization. The effect of the compound on hPDE5 stabilization was calculated based on the following formula: % PDE5 stabilization effect=(MFI-ZPE)/(HPE-ZPE)×100.
# (§13) Plots of the % effect versus concentration were generated with Graphpad Prism 5 and EC50 values were calculated using a four-parameter nonlinear regression model.
# (§14) Select PDE5 clones from both experiment 1 and experiment 2 were directly compared. […] The stabilization ratio was calculated as the fold change in GFP intensity in ligand treated samples compared to treatment with DMSO (i.e. in the absence of ligand) with the same construct.
# [2] = test system: hPDE5 mutants; experiment: as above; settings: experiment 1
# Method: as §11, §12, §13, §14
# [3] = biological target: T1, hPDE5 mutants; experiment: GFP MFI by FACS in HCT116 cells transduced with hPDE5 constructs; type: cell-based
# Method: (§1) Desirable qualities of a DD include, low expression of the SRE in the absence of ligand and ligand dependent stabilization of the SRE. Constructs were generated using DDs linked to GFP using an SG linker. […] The mean fluorescence intensity (MFI) of GFP was analyzed by FACS. […] Destabilizing mutation coefficient less than 1 are desirable.
# (§2) Mean fluorescence intensity (MFI) was measured by FACS. […] Destabilizing mutation coefficient ratios less than 1 are desirable.
# (§3) Mean fluorescence intensity (MFI) was measured by FACS. […] Destabilizing mutation co-efficient ratios less than 1 are desirable.
# (§4) Mean fluorescence intensity (MFI) was measured by FACS. […] Destabilizing mutation coefficient less than 1 are desirable.
# as §4
# (§5) Mean fluorescence intensity (MFI) of GFP was measured by FACS.
# (§6) Mean fluorescence intensity (MFI) was measured by FACS.
# (§7) The media containing the ligand was removed and fresh media without the ligand was added.
# (§8) The properties of the DDs were analyzed in the presence and absence of ligands via FACS as previously described.
# (§9) GFP fluorescence was measured by FACS.
# (§10) The properties of the DDs were analyzed via FACS both in the presence and absence of ligands.
# as §9
# [4] = test system: hPDE5 mutants; experiment: as above; type: cell-based, human
# Method: as §1, §2, §3, §4, §4, §5, §6, §7, §8, §9, §10, §9
# [5] = Off-kinetics, time 50 hrs (ligand removed at 48 h)
# [6] = Off-kinetics, time 52 hrs (ligand removed at 48 h)
# [7] = Off-kinetics, time 54 hrs (ligand removed at 48 h)
# [8] = Off-kinetics, time 56 hrs (ligand removed at 48 h)
# [9] = Off-kinetics, time 60 hrs (ligand removed at 48 h)
# [10] = Off-kinetics, time 72 hrs (ligand removed at 48 h)
# [11] = Off-kinetics, time 80 hrs (ligand removed at 48 h)
# [12] = Off-kinetics, time 96 hrs (ligand removed at 48 h)
substance,measurement,setting,value
"LibC000013: hPDE5 (Amino acid 535-860 of WT, L781P), DD generated by random mutagenesis",Stabilization ratio,[1],1.5
same,Destabilizing mutation co-efficient,[1],0.09
same,MFI 10 μM VDF,[1],723
same,MFI DMSO,[1],498
same,GFP FACS analysis (MFI),[1]; SDF 3.704 μM,3467
same,GFP FACS analysis (MFI),[1]; SDF 11.111 μM,5539
same,GFP FACS analysis (MFI),[1]; SDF 33.333 μM,7404
same,GFP FACS analysis (MFI),[1]; SDF 100 μM,8260
same,GFP FACS analysis (MFI),[1]; TDF 3.704 μM,6275
same,GFP FACS analysis (MFI),[1]; TDF 11.111 μM,8085
same,GFP FACS analysis (MFI),[1]; TDF 33.333 μM,8353
same,GFP FACS analysis (MFI),[1]; TDF 100 μM,7614
same,GFP FACS analysis (MFI),[1]; VDF 1.235 μM,6773
same,GFP FACS analysis (MFI),[1]; VDF 3.704 μM,7330
same,GFP FACS analysis (MFI),[1]; VDF 11.111 μM,7393
same,GFP FACS analysis (MFI),[1]; VDF 33.333 μM,7308
same,GFP FACS analysis (MFI),[1]; VDF 100 μM,7207
same,GFP FACS analysis (MFI),"[2]; DMSO (no ligand), SDF series",943
same,GFP FACS analysis (MFI),"[2]; DMSO (no ligand), TDF series",847
same,GFP FACS analysis (MFI),"[2]; DMSO (no ligand), VDF series",854
same,GFP FACS analysis (MFI),[2]; SDF 1.235 μM,2076
same,GFP FACS analysis (MFI),[2]; TDF 1.235 μM,3688
OT-001186: hPDE5 R732G AcGFP construct,"GFP by FACS, Sildenafil 10 μM","[3]; hotspot constructs, HCT116",288
same,"GFP by FACS, Vardenafil 1 μM","[3]; hotspot constructs, HCT116",854
same,"GFP by FACS, Sildenafil 0 μM (DMSO)","[4]; hotspot constructs, HCT116, DMSO control of Sildenafil",298
same,"GFP by FACS, Vardenafil 0 μM (DMSO)","[4]; hotspot constructs, HCT116, DMSO control of Vardenafil",176
OT-001216: hPDE5 wildtype construct linked to GFP,Sildenafil Stabilization ratio,"[3]; 10 μM, 48 h, HCT-116",1.03
same,Vardenafil Stabilization ratio,"[3]; 10 μM, 48 h, HCT-116",1.04
same,MFI Sildenafil,"[3]; GFP, 10 μM Sildenafil 48 h, HCT-116",66860
same,MFI Vardenafil,"[3]; GFP, 10 μM Vardenafil 48 h, HCT-116",67388
same,MFI DMSO,"[4]; GFP, DMSO 48 h, HCT-116",64942
same,Stabilization ratio,"[4]; Off-kinetics, time 48 hrs (after 48 h ligand treatment)",2.24
same,MFI,"[4]; Off-kinetics, time 48 hrs (after 48 h ligand treatment), HCT 116",102137
same,MFI,[4]; [5],97225
same,Stabilization ratio,[4]; [5],2.14
same,MFI,[4]; [6],96264
same,Stabilization ratio,[4]; [6],2.12
same,MFI,[4]; [7],95410
same,Stabilization ratio,[4]; [7],2.10
same,MFI,[4]; [8],81733
same,Stabilization ratio,[4]; [8],1.80
same,MFI,[4]; [9],84323
same,Stabilization ratio,[4]; [9],1.85
same,MFI,[4]; [10],70151
same,Stabilization ratio,[4]; [10],1.54
same,MFI,[4]; [11],63208
same,Stabilization ratio,[4]; [11],1.39
same,MFI,[4]; [12],55918
same,Stabilization ratio,[4]; [12],1.23
same,MFI,"[4]; Sildenafil 30 μM, 24 h, HCT116",75478
same,Stabilization ratio,"[4]; Sildenafil 30 μM, 24 h, HCT116",1.22
same,MFI,"[4]; Tadalafil 100 μM, 24 h, HCT116",58468
same,Stabilization ratio,"[4]; Tadalafil 100 μM, 24 h, HCT116",1.60
same,MFI,"[4]; Vardenafil 30 μM, 24 h, HCT116",70898
same,Stabilization ratio,"[4]; Vardenafil 30 μM, 24 h, HCT116",1.14
"LibC000010: hPDE5 (Amino acid 535-860 of WT, R658H), DD generated by random mutagenesis",Stabilization ratio,[1],2.1
same,Destabilizing mutation co-efficient,[1],1.17
same,MFI 10 μM VDF,[1],13940
same,MFI DMSO,[1],6713
"LibC000011: hPDE5 (Amino acid 535-860 of WT, S562G, L727P, R847T), DD generated by random mutagenesis",Stabilization ratio,[1],1.2
same,Destabilizing mutation co-efficient,[1],0.01
same,MFI 10 μM VDF,[1],67
same,MFI DMSO,[1],57
"LibC000005: hPDE5 (Amino acid 535-860 of WT, I556S, E796D), DD generated by random mutagenesis",MFI 10 μM VDF,[1],2081
same,MFI DMSO,[1],271
same,GFP FACS analysis (MFI),[1]; SDF 3.704 μM,518
same,GFP FACS analysis (MFI),[1]; SDF 11.111 μM,577
same,GFP FACS analysis (MFI),[1]; SDF 33.333 μM,734
same,GFP FACS analysis (MFI),[1]; SDF 100 μM,1136
same,GFP FACS analysis (MFI),[1]; TDF 3.704 μM,453
same,GFP FACS analysis (MFI),[1]; TDF 11.111 μM,551
same,GFP FACS analysis (MFI),[1]; TDF 33.333 μM,711
same,GFP FACS analysis (MFI),[1]; TDF 100 μM,814
same,GFP FACS analysis (MFI),[1]; VDF 1.235 μM,1044
same,GFP FACS analysis (MFI),[1]; VDF 3.704 μM,1968
same,GFP FACS analysis (MFI),[1]; VDF 11.111 μM,3066
same,GFP FACS analysis (MFI),[1]; VDF 33.333 μM,3892
same,GFP FACS analysis (MFI),[1]; VDF 100 μM,4240
same,Fluorescence intensity Sildenafil,"[1]; median GFP fluorescence by FACS, 10 μM Sildenafil, direct comparison of clones",1136
same,Fluorescence intensity Tadalafil,"[1]; median GFP fluorescence by FACS, 10 μM Tadalafil, direct comparison of clones",814
same,Fluorescence intensity Vardenafil,"[1]; median GFP fluorescence by FACS, 10 μM Vardenafil, direct comparison of clones",4240
same,Fluorescence intensity DMSO,"[1]; median GFP fluorescence by FACS, vehicle DMSO (no ligand), direct comparison of clones",359
same,GFP FACS analysis (MFI),"[2]; DMSO (no ligand), SDF series",335
same,GFP FACS analysis (MFI),"[2]; DMSO (no ligand), TDF series",366
same,GFP FACS analysis (MFI),"[2]; DMSO (no ligand), VDF series",376
same,GFP FACS analysis (MFI),[2]; SDF 1.235 μM,479
same,Percent stabilization effect,[2]; SDF 1.235 μM,18.0%
same,Percent stabilization effect,[2]; SDF 3.704 μM,22.8%
same,Percent stabilization effect,[2]; SDF 11.111 μM,30.2%
same,Percent stabilization effect,[2]; SDF 33.333 μM,49.8%
same,Percent stabilization effect,[2]; SDF 100 μM (set as 100%),100.0%
same,GFP FACS analysis (MFI),[2]; TDF 1.235 μM,418
same,Percent stabilization effect,[2]; TDF 1.235 μM,11.6%
same,Percent stabilization effect,[2]; TDF 3.704 μM,19.4%
same,Percent stabilization effect,[2]; TDF 11.111 μM,41.3%
same,Percent stabilization effect,[2]; TDF 33.333 μM,77.0%
same,Percent stabilization effect,[2]; TDF 100 μM (set as 100%),100.0%
same,Percent stabilization effect,[2]; VDF 1.235 μM,17.3%
same,Percent stabilization effect,[2]; VDF 3.704 μM,41.2%
same,Percent stabilization effect,[2]; VDF 11.111 μM,69.6%
same,Percent stabilization effect,[2]; VDF 33.333 μM,91.0%
same,Percent stabilization effect,[2]; VDF 100 μM (set as 100%),100.0%
"LibC000023: hPDE5 (Amino acid 535-860 of WT, E858V), DD generated by random mutagenesis",Stabilization ratio,[1],1.4
same,Destabilizing mutation co-efficient,[1],0.77
same,MFI 10 μM VDF,[1],6121
same,MFI DMSO,[1],4386
"LibC000021: hPDE5 (Amino acid 535-860 of WT, V594I), DD generated by random mutagenesis",Stabilization ratio,[1],2.6
same,Destabilizing mutation co-efficient,[1],0.30
same,MFI 10 μM VDF,[1],4440
same,MFI DMSO,[1],1732
